Numbering of substitutions follows the chain as printed.
T1: human FcγRIIb extracellular domain with C-terminal His-tag (human, UniProt P31994 43-217)
T1 construct: also called human FcgRIIb
T1 sequence: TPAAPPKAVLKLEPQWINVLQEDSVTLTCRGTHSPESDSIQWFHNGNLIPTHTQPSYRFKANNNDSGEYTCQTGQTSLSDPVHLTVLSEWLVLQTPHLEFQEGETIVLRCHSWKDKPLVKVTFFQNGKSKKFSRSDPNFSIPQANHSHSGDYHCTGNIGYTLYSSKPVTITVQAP

T2: cynomolgus monkey FcγRIIIaS extracellular domain with C-terminal His-tag (cynomolgus monkey, UniProt Q8SPW2 21-206 at identity 1.00))
T2 construct: also called cyno FcgRIIIaS; cynoFcγRIIIaS
T2 chain: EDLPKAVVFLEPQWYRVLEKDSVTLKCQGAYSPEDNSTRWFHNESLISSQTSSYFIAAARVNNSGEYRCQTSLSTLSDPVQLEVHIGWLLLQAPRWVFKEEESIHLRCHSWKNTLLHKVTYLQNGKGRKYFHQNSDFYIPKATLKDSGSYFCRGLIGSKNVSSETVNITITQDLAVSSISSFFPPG

T3: cynomolgus monkey FcγRIIa3 extracellular domain with C-terminal His-tag (cynomolgus monkey)
T3 construct: also called cyno FcγRIIa3; FcgRIIa3
T3 chain: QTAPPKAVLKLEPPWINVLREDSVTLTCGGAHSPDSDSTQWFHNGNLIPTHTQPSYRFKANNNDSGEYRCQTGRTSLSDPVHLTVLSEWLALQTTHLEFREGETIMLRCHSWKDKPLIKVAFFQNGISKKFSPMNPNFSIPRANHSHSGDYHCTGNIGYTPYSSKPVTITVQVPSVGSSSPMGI

T4: cynomolgus monkey FcγRIIIaS extracellular domain with C-terminal His-tag (cynomolgus monkey, UniProt Q8SPW2 21-206 at identity 1.00))
T4 construct: also called cyno FcγRIIIaS; FcgRIIIaS
T4 chain: T2 chain

T5: human FcγRIIaR extracellular domain with C-terminal His-tag (human, UniProt P12318 34-217)
T5 construct: also called human FcγRIIa (type R); FcgRIIaR
T5 chain: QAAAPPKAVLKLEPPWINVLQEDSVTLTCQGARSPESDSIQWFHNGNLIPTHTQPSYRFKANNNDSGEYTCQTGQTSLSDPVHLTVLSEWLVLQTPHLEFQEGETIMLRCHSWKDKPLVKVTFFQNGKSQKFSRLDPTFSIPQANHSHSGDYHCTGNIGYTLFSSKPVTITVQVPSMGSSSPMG

T6: cynomolgus monkey FcγRIIa1 extracellular domain with C-terminal His-tag (cynomolgus monkey)
T6 construct: also called cyno FcgRIIa1; cynoFcγRIIa1; not shown: His-tag added to the C-terminus
T6 chain: T3 chain with T95P, A121T, S128A, P133H, N135D

T7: human FcγRIIaH extracellular domain with C-terminal His-tag (human, UniProt P12318 34-217)
T7 construct: also called human FcgRIIaH; FcγRIIa type H; not shown: His-tag added to the C-terminus
T7 sequence: T5 chain with R134H

T8: cynomolgus monkey FcγRIIa3 extracellular domain with C-terminal His-tag (cynomolgus monkey)
T8 construct: also called cyno FcgRIIa3; cynoFcγRIIa3; not shown: His-tag added to the C-terminus
T8 chain: T3 chain

T9: human FcγRIIb extracellular domain with C-terminal His-tag (human, UniProt P31994 43-217)
T9 construct: also called human FcgRIIb; not shown: His-tag added to the C-terminus
T9 sequence: T1 sequence

B1: MS1032LO06-SG1012 (antibody, human IgG1, kappa)
heavy: QVTLKESGPVLVKPTETLTLTCTVSGIDLSHDDISWVRQAPGKGLEWVGIISYAGSTYYASWAKGRLTISKDTSKNQVVLTMTNMDPVDTATYYCARGVPAYSHGGDLWGQGTLVTVSSASTKGPSVFPLAPSSKSTSGGTAALGCLVKDYFPEPVTVSWNSGALTSGVHTFPAVLQSSGLYSLSSVVTVPSSSLGTQTYICNVNHKPSNTKVDKKVEPKSCDKTHTCPPCPAPELLNGPSVFLFPPKPKDTLMISRTPEVTCVVVDVSEEDPEVKFNWYVDGVEVHNAKTKPREEQYNSTYRVVSVLTVLHQDWLNGKEYKCKVSNKALPKPIEKTISKAKGQPREPQVYTLPPSREEMTKNQVSLTCLVKGFYPSDIAVEWESNGQPENNYKTTPMVLDSDGSFFLYSKLTVDKSRWQQGNVFSCSVMHEALHAHYTQKSLSLSP
light: DIVMTQSPATLSLSPGERATLSCTSSQSVYHANWLSWFQQKPGQPPKLLIYWASTLAYGVPSRFSGSGSGTDFTLTISSLQPEDAATYYCAGGYGGGRYAFGQGTKVEIKRTVAAPSVFIFPPSDEQLKSGTASVVCLLNNFYPREAKVQWKVDNALQSGNSQESVTEQDSKDSTYSLSSTLTLSKADYEKHKVYACEVTHQGLSSPVTKSFNRGEC
notes: tied to rows r7/r25 by row order only; also called MS103205H795-SG1012; copies: 2 + 2
B2: M103205H795-MY227 (heavy chain) with M103202L889-SK1 (light chain) (antibody, human IgG1, kappa, name in EU numbering)
heavy: B1 heavy with N238G, G239Y, E270D, M398K, A436N
light: B1 light
notes: Substitutions introduced into M103205H795-SG1; positions in EU numbering
B3: M103205H795-MY229 (heavy chain) with M103202L889-SK1 (light chain) (antibody, human IgG1, kappa, name in EU numbering)
heavy: B1 heavy with N238G, G239Y, E270D, Q297L, M398K, A436N
light: B1 light
notes: as for B2
B4: MS1032LO19-SG1071 (antibody)
heavy: QVQLVESGGGLVQPGGSLRLSCAVSGIDLSHDDISWVRQAPGKGLEWVSIISYAGSTYYASWAKGRLTISKDTSKNQVVLTMTNMDPVDTATYYCARGVPAYSHGGDLWGQGTLVTVSSASTKGPSVFPLAPSSKSTSGGTAALGCLVKDYFPEPVTVSWNSGALTSGVHTFPAVLQSSGLYSLSSVVTVPSSSLGTQTYICNVNHKPSNTKVDKKVEPKSCDKTHTCPPCPAPELLNGPSVFLFPPKPKDTLMISRTPEVTCVVVDVSDEDPEVKFNWYVDGVEVHNAKTKPREELYNSTYRVVSVLTVLHRDWLNGKEYKCKVSNKALPKPIEKTISKAKGQPREPQVYTLPPSREEMTKNQVSLTCLVKGFYPSDIAVEWESNGQPENNYKTTPPVLDSDGSFFLYSKLTVKKSRWQQGNVFSCSVLHEALHAHTTRKELSLSP
light: B1 light with S25T, A32E
notes: tied to rows r14/r32 by row order only; also called MS103240H795-SG1071; copies: 2 + 2
B5: M103205H795-MY280 (heavy chain) with M103202L889-SK1 (light chain) (antibody, human IgG1, kappa, name in EU numbering)
heavy: B1 heavy with N238V, E270D, Q297L, M398P, A436N
light: B1 light
notes: as for B2
B6: M103205H795-MY199/M103202L889-SK1 (antibody, human IgG1, kappa, name in EU numbering)
heavy: B1 heavy with M398P, A436N
light: B1 light
notes: Fc variant of MS1032LO06-SG1; positions in EU numbering
B7: M103205H795-MY105/M103202L889-SK1 (antibody, human IgG1, kappa, name in EU numbering)
heavy: B1 heavy with S241V, K332A, A436N
light: B1 light
notes: as for B6
B8: M103205H795-MY321 (heavy chain) with M103202L889-SK1 (light chain) (antibody, human IgG1, kappa, name in EU numbering)
heavy: B1 heavy with N238H, E270D, A436N
light: B1 light
notes: as for B2
B9: M103205H795-MY206/M103202L889-SK1 (antibody, human IgG1, kappa, name in EU numbering)
heavy: B1 heavy with S241V, E270D, Q297L, M398P, A436N
light: B1 light
notes: as for B6

How the values were obtained:
[1] = biological target: T1, human FcγRIIb extracellular domain with …; test: SPR, KD(parent SG1)/KD(variant)
[2] = biological target: T2, cynomolgus monkey FcγRIIIaS …; test: SPR, KD(parent SG1)/KD(variant)
[3] = biological target: T3, cynomolgus monkey FcγRIIa3 …; test: SPR; KD of SG1 / KD of variant
Description: (§1) The kinetic analysis of interactions between these antibodies and FcγR was carried out using BIACORE® T200 or BIACORE® 4000 (GE Healthcare). HBS-EP+ (GE Healthcare) was used as the running buffer, and the measurement temperature was set to 25° C. […] After the measurement, the antibody captured on the chip was washed off by allowing reaction with 10 mM glycine-HCl, pH1.5 and 25 mM NaOH so that the chip was regenerated and used repeatedly. The sensorgrams obtained as measurement results were analyzed by the 1:1 Langmuir binding model using the BIACORE® Evaluation Software to calculate the binding rate constant ka (L/mol/s) and dissociation rate constant kd (1/s), and the dissociation constant KD (mol/L) was calculated from these values. […] Regarding such interactions, KD values were calculated using the following 1:1 binding model described in BIACORE® T100 Software Handbook BR1006-48 Edition AE.

[4] = biological target: T4, cynomolgus monkey FcγRIIIaS …; test: SPR; KD of SG1 / KD of variant
Description: as §1

[5] = biological target: T5, human FcγRIIaR extracellular domain …; test: SPR; KD of SG1 / KD of variant
Description: as §1

[6] = biological target: T6, cynomolgus monkey FcγRIIa1 …; test: SPR (BIACORE), antibody captured, FcgR analyte
[7] = biological target: T10, cynomolgus monkey FcγRIIIaS extracellular domain with C-terminal His-tag (cynomolgus monkey, UniProt A3RFZ7 21-206 (rhesus entry)); test: SPR (BIACORE), antibody captured, FcgR analyte
T10 construct: also called cyno FcgRIIIaS; cynoFcγRIIIaS; not shown: His-tag added to the C-terminus

[8] = biological target: T7, human FcγRIIaH extracellular domain …; test: SPR (BIACORE), antibody captured, FcgR analyte
[9] = biological target: T11, human FcγRIIIaV extracellular domain with C-terminal His-tag (human, UniProt P08637 17-208); test: SPR (BIACORE), antibody captured, FcgR analyte
T11 construct: also called human FcgRIIIaV; not shown: His-tag added to the C-terminus
T11 sequence (P08637 17-208 F176V): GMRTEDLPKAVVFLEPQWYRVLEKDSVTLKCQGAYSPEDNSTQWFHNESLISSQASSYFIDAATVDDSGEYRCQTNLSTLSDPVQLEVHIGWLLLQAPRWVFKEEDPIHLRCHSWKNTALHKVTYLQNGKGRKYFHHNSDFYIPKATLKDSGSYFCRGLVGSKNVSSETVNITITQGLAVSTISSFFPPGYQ

[10] = biological target: T8, cynomolgus monkey FcγRIIa3 …; test: SPR (BIACORE), antibody captured, FcgR analyte
[11] = biological target: T10, cynomolgus monkey FcγRIIIaS …; test: SPR (BIACORE); KD of SG1 / KD of variant
[12] = biological target: T9, human FcγRIIb extracellular domain with …; test: SPR (BIACORE), antibody captured, FcgR analyte

Binder	KD fold (SG1 = 1) [3] [fold]	KD fold (SG1 = 1) [4] [fold]	Kd [6] [µM]	Kd [7] [µM]	further results
B1	–	–	–	–	KD fold (SG1 = 1) [1]: 0.5 fold; KD fold (SG1 = 1) [2]: 0.11 fold
B2	6.8	0.09	–	–	–
B3	8.9	0.09	–	–	KD fold (SG1 = 1) [5]: 13.6 fold
B4	–	–	–	–	KD fold (SG1 = 1) [1]: 5.7 fold; KD fold (SG1 = 1) [2]: 0.07 fold
B5	3.7	0.2	–	–	–
B6	–	–	1.9	0.041	Kd [8]: 1.1 µM; Kd [9]: 13 µM
B7	–	–	1.2	1.3	Kd [8]: 1.5 µM; Kd [10]: 1.5 µM; KD fold (SG1 = 1) [11]: 0.28 fold
B8	5.9	–	–	–	–
B9	–	–	0.81	3.5	Kd [12]: 0.9 µM; Kd [10]: 3 µM

From patent US20250076311A1 (Chugai, published 2025)
